From publication PMC3999857, “Periodic DNA patrolling underlies diverse functions of Pif1 on R-loops and G-rich DNA” (eLife, 2014)

Substrate: Nc1ncnc2c1ncn2[C@@H]1O[C@H](COP(=O)(O)OP(=O)(O)OP(=O)(O)O)[C@@H](O)[C@H]1O
Assay: purified protein
Type: biochemical, Saccharomyces cerevisiae
Details: 3′-(dT)40 partial duplex DNA, monomer condition (10 nM Pif1 then wash), 5 mM MgCl2, 60 mM KCl, pH 7.5, 22 °C

B1: Pif1 (Saccharomyces cerevisiae S288C) (protein)
chain: RSNNFIQAQLKHPSILSKEDLDLLSDSDDWEEPDCIQLETEKQEKKIITDIHKEDPVDKKPMRDKNVMNFINKDSPLSWNDMFKPSIIQPPQLISENSFDQSSQKKSRSTGFKNPLRPALKKESSFDELQNNSISQERSLEMINENEKKKMQFGEKIAVLTQRPSFTELQNDQDDSNLNPHNGVKVKIPICLSKEQESIIKLAENGHNIFYTGSAGTGKSILLREMIKVLKGIYGRENVAVTASTGLAACNIGGITIHSFAGIGLGKGDADKLYKKVRRSRKHLRRWENIGALVVDEISMLDAELLDKLDFIARKIRKNHQPFGGIQLIFCGDFFQLPPVSKDPNRPTKFAFESKAWKEGVKMTIMLQKVFRQRGDVKFIDMLNRMRLGNIDDETEREFKKLSRPLPDDEIIPAELYSTRMEVERANNSRLSKLPGQVHIFNAIDGGALEDEELKERLLQNFLAPKELHLKVGAQVMMVKNLDATLVNGSLGKVIEFMDPETYFCYEALTNDPSMPPEKLETWAENPSKLKAAMEREQSDGEESAVASRKSSVKEGFAKSDIGEPVSPLDSSVFDFMKRVKTDDEVVLENIKRKEQLMQTIHQNSAGKRRLPLVRFKASDMSTRMVLVEPEDWAIEDENEKPLVSRVQLPLMLAWSLSIHKSQGQTLPKVKVDLRRVFEKGQAYVALSRAVSREGLQVLNFDRTRIKAHQKVIDFYLTLSSAESAYKQLEADEQVKKRKLDYAPGPKYKAKSKSKSNSPAPISATTQSNNGIAAMLQRHSRKRFQLKKESNSNQVHSLVSDEPRGQDTEDHILE
notes: purified His6-tagged Pif1, purification as in Boule et al. 2005; monomer
For B1, the Km was 110 ± 17 µM.
